The source of these data is publication PMC4267786.

This assay addresses native apolipoprotein D (apoD) from human plasma (human) (UniProt P05090). Briefly: ELISA; detergent-free dual-specific ELISA with purified components; capture anti-apoD D544, detection anti-apoB LDL20-biotin; LDL 333 ng/ml (or VLDL 1000 ng/ml, also with detergent) alone or with apoD 100 ng/ml, recombinant apoD 100 ng/ml, HDL2 or HDL3 1000 ng/ml; read as absorbance relative to LDL alone.
Sequence of UniProt P05090 (P05090 21-189): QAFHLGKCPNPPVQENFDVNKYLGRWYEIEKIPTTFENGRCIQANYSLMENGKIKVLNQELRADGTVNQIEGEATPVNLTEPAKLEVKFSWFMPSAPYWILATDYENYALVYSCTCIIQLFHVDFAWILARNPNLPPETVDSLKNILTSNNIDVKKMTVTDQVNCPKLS

In the case of “purified low density lipoprotein (LDL) (complex)”, the fold enhancement of LDL binding against LDL alone amounted to 6 fold.
